Experimental data published in article PMC6368843 (Biochemistry, 2016).

Key:
[1] = biological target: T1, Purβ FL (full-length NHis-Purβ) (Mus musculus, UniProt O35295); assay: ssDNA-binding ELISA
T1 sequence (O35295 1-324): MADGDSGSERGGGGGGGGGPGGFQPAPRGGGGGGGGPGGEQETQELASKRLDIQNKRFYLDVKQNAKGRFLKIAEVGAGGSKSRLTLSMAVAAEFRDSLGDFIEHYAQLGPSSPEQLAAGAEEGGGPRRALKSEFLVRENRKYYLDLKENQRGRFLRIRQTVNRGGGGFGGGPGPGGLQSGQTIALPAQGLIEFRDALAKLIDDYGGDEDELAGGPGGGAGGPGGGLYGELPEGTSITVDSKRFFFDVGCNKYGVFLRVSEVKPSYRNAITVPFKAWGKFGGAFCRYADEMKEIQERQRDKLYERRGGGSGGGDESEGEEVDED

Purβ III = biological target: T2, Purβ III (Mus musculus, UniProt O35295); assay: ssDNA-binding ELISA
T2 sequence (O35295 209-303): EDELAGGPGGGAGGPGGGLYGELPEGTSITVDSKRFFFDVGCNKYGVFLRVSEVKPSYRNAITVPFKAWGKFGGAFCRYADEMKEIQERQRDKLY

Purβ I-II-III = biological target: T3, Purβ I-II-III (Mus musculus, UniProt O35295); assay: ssDNA-binding ELISA
T3 sequence (O35295 41-303): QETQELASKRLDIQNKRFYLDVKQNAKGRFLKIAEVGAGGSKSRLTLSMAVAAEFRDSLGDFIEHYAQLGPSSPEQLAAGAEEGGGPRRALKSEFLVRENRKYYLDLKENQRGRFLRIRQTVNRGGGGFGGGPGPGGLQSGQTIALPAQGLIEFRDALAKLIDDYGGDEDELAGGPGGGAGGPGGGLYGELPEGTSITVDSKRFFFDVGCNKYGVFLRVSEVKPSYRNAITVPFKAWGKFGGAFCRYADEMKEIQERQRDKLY

SEC = biological target: the molecule itself; assay: SEC
Purβ R267A = biological target: T4, Purβ R267A (Mus musculus, UniProt O35295 1-324, R267A); assay: ELISA
T4 sequence: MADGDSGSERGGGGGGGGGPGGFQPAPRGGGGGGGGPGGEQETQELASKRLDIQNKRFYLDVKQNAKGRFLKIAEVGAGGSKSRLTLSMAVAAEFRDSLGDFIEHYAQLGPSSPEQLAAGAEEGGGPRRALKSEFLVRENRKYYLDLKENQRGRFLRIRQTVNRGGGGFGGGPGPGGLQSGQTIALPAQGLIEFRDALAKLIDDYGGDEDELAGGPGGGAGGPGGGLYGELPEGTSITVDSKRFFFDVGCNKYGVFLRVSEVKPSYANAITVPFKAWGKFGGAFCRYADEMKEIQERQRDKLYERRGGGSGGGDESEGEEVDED

[2] = biological target: T5, Purβ FL (wild-type NHis-Purβ) (Mus musculus, UniProt O35295 1-324); assay: ELISA
T5 sequence: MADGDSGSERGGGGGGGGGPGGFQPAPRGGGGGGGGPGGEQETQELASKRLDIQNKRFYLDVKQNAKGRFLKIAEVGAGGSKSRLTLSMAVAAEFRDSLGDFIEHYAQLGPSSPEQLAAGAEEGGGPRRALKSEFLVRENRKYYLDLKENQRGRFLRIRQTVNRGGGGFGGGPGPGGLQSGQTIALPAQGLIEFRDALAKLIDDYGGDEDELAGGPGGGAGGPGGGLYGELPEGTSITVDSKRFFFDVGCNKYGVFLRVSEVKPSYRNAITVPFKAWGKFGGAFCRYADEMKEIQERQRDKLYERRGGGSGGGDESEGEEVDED

Purβ R159A/R267A = biological target: T6, Purβ R159A/R267A (Mus musculus, UniProt O35295 1-324, R159A;R267A); assay: ELISA
T6 sequence: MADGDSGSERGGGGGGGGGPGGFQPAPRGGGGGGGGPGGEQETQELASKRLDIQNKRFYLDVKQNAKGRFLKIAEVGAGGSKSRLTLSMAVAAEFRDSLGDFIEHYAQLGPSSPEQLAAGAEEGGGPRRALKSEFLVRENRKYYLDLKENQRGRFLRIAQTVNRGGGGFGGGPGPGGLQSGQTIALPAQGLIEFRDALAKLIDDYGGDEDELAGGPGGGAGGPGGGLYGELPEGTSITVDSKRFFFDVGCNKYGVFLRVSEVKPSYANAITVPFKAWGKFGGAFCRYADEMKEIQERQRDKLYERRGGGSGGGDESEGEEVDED

In the case of `C[C@H](CCC(=O)O)[C@H]1CC[C@H]2[C@@H]3CC[C@@H]4C[C@H](O)CC[C@]4(C)[C@H]3C[C@H](O)[C@]12C` [sodium deoxycholate], the IC50 [1] is reported as 2360 µM, the IC50 (Purβ III) is reported as 1450 µM and the IC50 (Purβ I-II-III) is reported as 2030 µM.

B1: Purβ K82A/R159A/R267A triple point mutant, N-terminally hexahistidine-tagged (natural protein, mouse, UniProt O35295 1-324, looked up)
chain: MADGDSGSERGGGGGGGGGPGGFQPAPRGGGGGGGGPGGEQETQELASKRLDIQNKRFYLDVKQNAKGRFLKIAEVGAGGSASRLTLSMAVAAEFRDSLGDFIEHYAQLGPSSPEQLAAGAEEGGGPRRALKSEFLVRENRKYYLDLKENQRGRFLRIAQTVNRGGGGFGGGPGPGGLQSGQTIALPAQGLIEFRDALAKLIDDYGGDEDELAGGPGGGAGGPGGGLYGELPEGTSITVDSKRFFFDVGCNKYGVFLRVSEVKPSYANAITVPFKAWGKFGGAFCRYADEMKEIQERQRDKLYERRGGGSGGGDESEGEEVDED
With B1 the “stoichiometry N” value (SEC) was 2.

B2: Purβ R159A/R267A double point mutant, N-terminally hexahistidine-tagged (natural protein, mouse, UniProt O35295 1-324, looked up)
chain: MADGDSGSERGGGGGGGGGPGGFQPAPRGGGGGGGGPGGEQETQELASKRLDIQNKRFYLDVKQNAKGRFLKIAEVGAGGSKSRLTLSMAVAAEFRDSLGDFIEHYAQLGPSSPEQLAAGAEEGGGPRRALKSEFLVRENRKYYLDLKENQRGRFLRIAQTVNRGGGGFGGGPGPGGLQSGQTIALPAQGLIEFRDALAKLIDDYGGDEDELAGGPGGGAGGPGGGLYGELPEGTSITVDSKRFFFDVGCNKYGVFLRVSEVKPSYANAITVPFKAWGKFGGAFCRYADEMKEIQERQRDKLYERRGGGSGGGDESEGEEVDED
In the case of B2, the “stoichiometry N” value (SEC) is reported as 2.

B3: Purβ R267A single point mutant, N-terminally hexahistidine-tagged (natural protein, mouse, UniProt O35295 1-324, looked up)
chain: MADGDSGSERGGGGGGGGGPGGFQPAPRGGGGGGGGPGGEQETQELASKRLDIQNKRFYLDVKQNAKGRFLKIAEVGAGGSKSRLTLSMAVAAEFRDSLGDFIEHYAQLGPSSPEQLAAGAEEGGGPRRALKSEFLVRENRKYYLDLKENQRGRFLRIRQTVNRGGGGFGGGPGPGGLQSGQTIALPAQGLIEFRDALAKLIDDYGGDEDELAGGPGGGAGGPGGGLYGELPEGTSITVDSKRFFFDVGCNKYGVFLRVSEVKPSYANAITVPFKAWGKFGGAFCRYADEMKEIQERQRDKLYERRGGGSGGGDESEGEEVDED
With B3 the “stoichiometry N” value (SEC) was 2.

B4: PE32-bF (ssDNA)
DNA: GGGAGCAGAACAGAGGAATGCAGTGGAAGAGA
B4 gave a Kd (Purβ R267A) of 0.00057 ± 4e-05 µM, a Kd [2] of 0.00017 ± 1e-05 µM and a Kd (Purβ R159A/R267A) of 0.0006 ± 4e-05 µM.
